Laboratory results: the RNAGym collection of RNA variant scans (doi:10.7554/elife.90254)

B1: OR4K15 (parent)
chain: GUUAACGGUCAUAGGCCAUGGAAACUAGGAGCACCAUUUCGCUGCCAGUGAAGAAAUGAACAAAGAAAAUCUGGGCCAGGCAGGCAUCAAAAGAAAUAGUCUUGCGCUCAACCAGAAAGUCUGUAAUCAUUUUAAGGGUA

Variants of: B1
Assay: self-cleavage, relative activity (ratio to wild type); higher = more cleavage; in vitro, sequencing; the parent is a self-cleaving ribozyme

Row | Variant | self-cleavage
1 | GUUAACGGUCAUAGGCCAUGGGAACUAGGAGCACCAUUUCGCUGCCAGUGAAGAAAUGAACAAAGAAAAUCUGGCCCAGGCAGGCAUCAAAAGAAAUAGUCUUGCGCUCAACCAGAAAGUCUGUAAUCAUUUUAAGGGUA | 0.37
2 | GUUAACGGUCAUAGGCCAUGGAAACUAGGAGCACCAUUUCGCUGCCAGUGAGGAAAUGAACAAAGAAAAUCUGGGCCAGGCAGGCAUCAGAAGAAAUAGUCUUGCGCUCAACCAGAAAGUCUGUAAUCAUUUUAAGGGUA | 0.99
3 | GUUAACGGUCAUAGGCCAUGGAAACUAGGAGCACCAUUUCGCUGCCAGUGAAGAGAUGAACAAAGAAAAUCUGGGCCAGGCAGGCAUCAAAAGAAAUAGUCUUGCGCUCAACCAGAAAGUCUGUAAUCAUUUUAUGGGUA | 0.94
4 | GUUAACGGUCAUAGGCCAUGGAAACUAGGAGCACCUUUUCGCUGCCAGUGAAGAAAUGAACAAAGAUAAUCUGGGCCAGGCAGGCAUCAAAAGAAAUAGUCUUGCGCUCAACCAGAAAGUCUGUAAUCAUUUUAAGGGUA | 1.55
5 | GUUAACGGUCAUAGGCCAUGGAAACUAGGAGCACCAUUUCGCUGCCAGUGAAGAAAUGGACAAAGAAAAUCUGGGCUAGGCAGGCAUCAAAAGAAAUAGUCUUGCGCUCAACCAGAAAGUCUGUAAUCAUUUUAAGGGUA | 1.7
6 | GUUAACGGUCAUAGGCCAUGGAAACUAGGUGCACCAUUUCGCUGCCAGUGAAGAAAUGAACAAAGAAAAUCUGGGCCAGGCAGGCAUCAGAAGAAAUAGUCUUGCGCUCAACCAGAAAGUCUGUAAUCAUUUUAAGGGUA | 1.31
7 | GUUAACGGUCAUAGGCCAUAGAAACUAGGAGCACCAUUUCGCUGCCAGUGAAGAAAUGAUCAAAGAAAAUCUGGGCCAGGCAGGCAUCAAAAGAAAUAGUCUUGCGCUCAACCAGAAAGUCUGUAAUCAUUUUAAGGGUA | 1.92
8 | GUUAACGGUCAUAGACCAUGGAAACUAGGAGCACCAUUUCGCUGCCAGUGAAGAAAUGAACAAAGAAGAUCUGGGCCAGGCAGGCAUCAAAAGAAAUAGUCUUGCGCUCAACCAGAAAGUCUGUAAUCAUUUUAAGGGUA | 1.73
9 | GUUAACGGUCAUAGGCCAUGGAAACUAGGAGCACCGUUUCGCUGCCAGUGAAGAAAUGAACAAAGAAAAUCUGGGCCAGGCAGGCAUCAAAAGAAAUAGUCUUGCGCUCAACCAGAAAGGCUGUAAUCAUUUUAAGGGUA | 1.29
10 | GUUAACGGUCAUAGGCCAUGGAAACUAGGAGCACCAUUUCGCUGCCAGUGAAGAAAUGAACAAAGAAAAUCUGGGCCAGGCAGGCAUCAAAAGAAUCAGUCUUGCGCUCAACCAGAAAGUCUGUAAUCAUUUUAAGGGUA | 1.9
11 | GUUAACGGUCAUAGGCCAUGGAAACUAGGAGCACCAUUUCGCUGCCAGUGAGGAAAUGAACAAAGAAAAUCUGGGCCAGGCAGGCAUCCAAAGAAAUAGUCUUGCGCUCAACCAGAAAGUCUGUAAUCAUUUUAAGGGUA | 2.11
12 | GUUAACGGUCAUAGGCCAUGGAAACUAGGAGCACCAUUUCGCUGCCAGUGAAGAAAUGAACAAAGAAAAUCUGGGCCAGGCAGGCAUCAAAGGAAAUAGUCUUGCGCUCAACCAGAAAGUCUGUAAUCAUUUUAAGAGUA | 1.34
13 | GUUAACGGUCAUAGGCCAUGGAAACUAGGAGCACCAUUUCGCUGCCAGUGAAGAAAUGAACAAAGAAAAUCUGGGCCAGGCAGGCAUCAACAGAAAUGGUCUUGCGCUCAACCAGAAAGUCUGUAAUCAUUUUAAGGGUA | 0.56
14 | GUUAGCGGUCAUAGGCCAUGGAAACUAGGAGCACCAUUUCGCUGCCAGUGUAGAAAUGAACAAAGAAAAUCUGGGCCAGGCAGGCAUCAAAAGAAAUAGUCUUGCGCUCAACCAGAAAGUCUGUAAUCAUUUUAAGGGUA | 1.35
15 | GUUAACGGUCAUAGGCCAUGGAUACUAGGAGCACCAUUUCGCUGCCAGUGAAGAAAUGAACAAAGAUAAUCUGGGCCAGGCAGGCAUCAAAAGAAAUAGUCUUGCGCUCAACCAGAAAGUCUGUAAUCAUUUUAAGGGUA | 1.91
16 | GUUAACGGUAAUAGGCCAUGGAAACUAGGAGCACCAGUUCGCUGCCAGUGAAGAAAUGAACAAAGAAAAUCUGGGCCAGGCAGGCAUCAAAAGAAAUAGUCUUGCGCUCAACCAGAAAGUCUGUAAUCAUUUUAAGGGUA | 0.71
17 | GUUAACGGUCAUAGGCCAUGGAAACCAGGAGCACCAUUUCGCUGCCAGUGAAGAAAUGAACAAAGAAAAUCUGGGCCUGGCAGGCAUCAAAAGAAAUAGUCUUGCGCUCAACCAGAAAGUCUGUAAUCAUUUUAAGGGUA | 0.21
18 | GUUAACGGUCAUAGGCCAUGGAAACUAGGAGCACCGUUUCGCCGCCAGUGAAGAAAUGAACAAAGAAAAUCUGGGCCAGGCAGGCAUCAAAAGAAAUAGUCUUGCGCUCAACCAGAAAGUCUGUAAUCAUUUUAAGGGUA | 1.91
19 | GUUAACGGUCAUAGGCCAUGGAAACUAGGAGCACCAUUUCGCUGCCAGUGAAGAAAUGAACAAAGAAAAUCUGGGCCAGGCAGGCAUCAAAAGAAAUGGUCUUGCGCUCAACCAGAAAGUCAGUAAUCAUUUUAAGGGUA | 0.57
20 | GUUAACGGUCAUAGGCCAUGGAAACUAGGAGCACCAUUUCACUGCCAGUGAAGAAAUGAACAAAGAAAAUCUGGGCCAGGCAGGCAUCAAAAGAAAUAGUCUUGCACUCAACCAGAAAGUCUGUAAUCAUUUUAAGGGUA | 0.01
21 | GUUAACGGUCAUAGGCCAUGGAAACUAGGAGCACCAUUUCGCUGCCAGAGAAGAAAUGAACAAAGAAAAUCUGGGCCAGGCAGGCAUCCAAAGAAAUAGUCUUGCGCUCAACCAGAAAGUCUGUAAUCAUUUUAAGGGUA | 0.85

Row | Variant | self-cleavage
22 | GUUAACGGUCAUAGGCCAUGGAAACUAGGAGCACCAUUUCGCUGCCAGUGAAGAAAUGAACAAAGAAAAUCUGGGCCAGGCAGGCAUCAAAAGAAAUAGUCUUGCGCUCUACCAGAAAGUCUGUAAUCAUUUUAAGGGUA | 1.34
23 | GUUAACGGUCAUAGGCCAUGGAAACUAGGAGCACCAUUUCGCUGCCAGUGAAGAAAUGAACAAAGAAAAUCUGGGCCAGGCAGGCAUCAAAAGAAAUAGUCUUGCGCUCAACCAGUAAGUCUGAAAUCAUUUUAAGGGUA | 0.08
24 | GUUAACGGUCAUAGGCCAUGGAAAUUAGGAGCACCAUUUCGCUGCCAGUGAAGAAGUGAACAAAGAAAAUCUGGGCCAGGCAGGCAUCAAAAGAAAUAGUCUUGCGCUCAACCAGAAAGUCUGUAAUCAUUUUAAGGGUA | 0.46
25 | GUUAACGGUCAUAGGCCAUGGACACUAGGAGCACCAUUUCGCUGCCAGUGAAGAAAUGUACAAAGAAAAUCUGGGCCAGGCAGGCAUCAAAAGAAAUAGUCUUGCGCUCAACCAGAAAGUCUGUAAUCAUUUUAAGGGUA | 1.77
26 | GUUAACGGUCAUAGGCCAUGGAAACUUGGAGCACCAUUUCGCUGCCAGUGAAGAAAUGAACGAAGAAAAUCUGGGCCAGGCAGGCAUCAAAAGAAAUAGUCUUGCGCUCAACCAGAAAGUCUGUAAUCAUUUUAAGGGUA | 1.61
27 | GUUAACGGUCAUAGGCCAUGGAAGCUAGGAGCCCCAUUUCGCUGCCAGUGAAGAAAUGAACAAAGAAAAUCUGGGCCAGGCAGGCAUCAAAAGAAAUAGUCUUGCGCUCAACCAGAAAGUCUGUAAUCAUUUUAAGGGUA | 1.62
28 | GUUAACGGUCAUAGGCCAUGGAAACUAGGAGCACCAUUUCGCUGCCAGUGAAGAAAUGAACAAAGAGAAUCUGGGCCAGGCAGGCAUCAAAAGAAAUAGUCUUGCGCUCAACCAGAAAGUCUGUAAUCAUUUUAAGGGUA | 1.1
29 | GUUAACGGUCAUGGGCCAUGGAAACUAGGAGCACCAUUUCGCUGCCAGUGAAGAAGUGAACAAAGAAAAUCUGGGCCAGGCAGGCAUCAAAAGAAAUAGUCUUGCGCUCAACCAGAAAGUCUGUAAUCAUUUUAAGGGUA | 1.04
30 | GUUAACGGUCAUAGGCCAUGGAAACUAGGAGCACCAUUUCGCUGCCAGUGAAGAAAUGAACAAAGAAAAUCUGGGCCAGCCAGGCAUCAAAAGAAUUAGUCUUGCGCUCAACCAGAAAGUCUGUAAUCAUUUUAAGGGUA | 0.09
31 | GUUAACGGUCAUAGGCCAUGGAAACUAGGAGCACCAUUUCGCUGCCAGUGAAGAAAUGAACAAAGAAAAUCUGGGCCAGGCAGGCAUCAAAAGAAAUAGUCUUGCGCUCAAGCAGAAAGUCUGUAAUCAUUUUAAGGGUA | 0.02
32 | GUUAACGGUCAUAGGCCAUGGAAACUAGGAGCACCAUUUCGCUGCCAGUGAAGAAAUGAACAAAGAAAAUCGGGGCCAGGCAGGCAUCAAAAGAAAUAGUCUUGCGCUCAACCAGAAGGUCUGUAAUCAUUUUAAGGGUA | 0.22
33 | GUUAACGGUCAUAGGCCAUGGAAAUUAGGAGCACCAUUUCGCUGCCAGUGAAGAAAUGAACAAAGAAAAUCUGGGCCAGGCAGGCAUCAAAAGAAAUAGUCUUGCGCUCAACCAGAAAGUCUGUAAUCAUUUUAAGGGUA | 1.3
34 | GUUAACGGUCAUAGGACAUGGAAACUAGGAGCACCAUUUCGCUGCCAGUGAAGAACUGAACAAAGAAAAUCUGGGCCAGGCAGGCAUCAAAAGAAAUAGUCUUGCGCUCAACCAGAAAGUCUGUAAUCAUUUUAAGGGUA | 0.52
35 | GUUAACGGUCAUAGGCCAUGGAAACUAGGAGCACCAUUUCGCUGCCAGUGAAGAAAUGAACAAAGAAAAUCUGGGCCAGGCAGGCAUCAAAAGAAAUAGUCUUGCGCUCAGCCAGAAAGUCGGUAAUCAUUUUAAGGGUA | 0.01
36 | GUUAACGGUCAUAGGCCAUGGAAACUAGGAGCACCAUUUCGCUGCCUGUGAAGAAAUGAACAAAGAAAAUCUGGGCCAGGCAGGCAUCAAAGGAAAUAGUCUUGCGCUCAACCAGAAAGUCUGUAAUCAUUUUAAGGGUA | 0.84
37 | GUUAACGGUCAUAGGCCAUGGAAACUAGGAGCACCAUUUCGCUGCCAGUGAAGAAAUGUACAAAGAAAAUCUGGGCCAGGCAGGCAUCAAAAGAAAUAGUCUUGCGCUUAACCAGAAAGUCUGUAAUCAUUUUAAGGGUA | 0.43
38 | GUUAGCGGUCAUAGGCCAUGGAAACUAGGAGCACCAUUUUGCUGCCAGUGAAGAAAUGAACAAAGAAAAUCUGGGCCAGGCAGGCAUCAAAAGAAAUAGUCUUGCGCUCAACCAGAAAGUCUGUAAUCAUUUUAAGGGUA | 1.31
39 | GUUAACGGUCAUAGGCCAUGGAAACUAGGAGCACCAUUUCGCUGCCAGUGAAGAAAUUAACAAAGAAAAUCUGGGCCAGGCAGGCACCAAAAGAAAUAGUCUUGCGCUCAACCAGAAAGUCUGUAAUCAUUUUAAGGGUA | 0.38
40 | GUUAACGGUCAUAGGCCAUGGAAACUAGGAGCACCAUUUCGCUGCCAGUGAAGAAAUGUACAAAGAAAAUCUGGGCCAGGCAGGCAUCAAAAGAAAUAGGCUUGCGCUCAACCAGAAAGUCUGUAAUCAUUUUAAGGGUA | 2.13
41 | GUUAACGGUCAUAGGCCAUGUAAACUAGGAGCACCAUUUCGCUGCCAGUGAAGAAAUGAACAAAGAAAAUCUGGGCCAGGCAGGCAACAAAAGAAAUAGUCUUGCGCUCAACCAGAAAGUCUGUAAUCAUUUUAAGGGUA | 1.31
